Assay results from patent US20220064329A1 (Novo Nordisk, published 2022).

Columns and labels:
Test in all cases: SPR, Biacore T200, 25 C; FVII(a) variant captured on anti-Gla Ab 4F6, mAb0842(OA) injected
FVII(a) variant R392A = target: T1, FVII(a) variant R392A (human, UniProt P08709 61-466)
T1 construct: hFVII alanine variant in cell culture supernatant
T1 sequence: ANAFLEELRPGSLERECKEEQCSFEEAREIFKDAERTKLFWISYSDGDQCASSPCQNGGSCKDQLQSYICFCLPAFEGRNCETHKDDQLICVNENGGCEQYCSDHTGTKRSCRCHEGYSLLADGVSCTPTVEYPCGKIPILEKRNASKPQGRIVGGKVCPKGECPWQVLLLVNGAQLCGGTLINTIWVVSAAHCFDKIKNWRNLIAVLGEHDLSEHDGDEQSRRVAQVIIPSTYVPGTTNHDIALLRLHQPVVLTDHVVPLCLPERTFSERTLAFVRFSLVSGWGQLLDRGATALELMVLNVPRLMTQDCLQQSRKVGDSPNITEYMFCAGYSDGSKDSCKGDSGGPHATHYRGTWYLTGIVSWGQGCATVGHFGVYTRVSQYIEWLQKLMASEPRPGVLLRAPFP
Description: (§1) The running buffer was prepared by diluting 10-fold the 10×HBS-P buffer (supplied by GE Healthcare) and supplemented with 1 mg/ml BSA and 5 mM CaCl2 to give 10 mM HEPES, 150 mM NaCl, 0.05% v/v Polysorbate 20, pH 7.4, 5 mM CaCl2, 1 mg/ml bovine serum albumin (BSA). […] Regeneration of the chip was achieved using 10 mM HEPES, 150 mM NaCl, 20 mM EDTA, 0.05 v/v Polysorbate 20, pH 7.4. Binding data were analysed according to a 1:1 Kinetic model and steady state analysis using BiaEvaluation 4.1 supplied by the manufacturer (Biacore AB, Uppsala, Sweden). Wherever possible, ka, kd and KD values from 1:1 kinetic fitting model are reported. […] An amino acid residue is considered a hot-spot residue if substitution of that amino acid residue with alanine results in an affinity reduction of ten (10) fold or more relative to the wild type.

FVII(a) variant T185A = target: T2, FVII(a) variant T185A (human, UniProt P08709 61-466)
T2 construct: hFVII alanine variant in cell culture supernatant
T2 sequence: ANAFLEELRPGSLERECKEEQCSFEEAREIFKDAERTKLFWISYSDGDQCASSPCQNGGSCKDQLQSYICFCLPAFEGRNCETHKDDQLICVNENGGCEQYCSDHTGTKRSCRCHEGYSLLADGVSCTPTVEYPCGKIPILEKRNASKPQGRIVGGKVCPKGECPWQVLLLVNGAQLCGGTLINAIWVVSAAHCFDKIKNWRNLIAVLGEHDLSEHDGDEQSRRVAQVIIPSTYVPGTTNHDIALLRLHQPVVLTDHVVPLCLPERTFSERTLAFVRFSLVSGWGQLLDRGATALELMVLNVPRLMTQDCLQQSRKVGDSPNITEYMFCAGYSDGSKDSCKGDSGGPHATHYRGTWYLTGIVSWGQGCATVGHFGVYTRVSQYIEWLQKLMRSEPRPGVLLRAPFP
Description: as §1

FVII(a) variant L120A = target: T3, FVII(a) variant L120A (human, UniProt P08709 61-466)
T3 construct: hFVII alanine variant in cell culture supernatant
T3 sequence: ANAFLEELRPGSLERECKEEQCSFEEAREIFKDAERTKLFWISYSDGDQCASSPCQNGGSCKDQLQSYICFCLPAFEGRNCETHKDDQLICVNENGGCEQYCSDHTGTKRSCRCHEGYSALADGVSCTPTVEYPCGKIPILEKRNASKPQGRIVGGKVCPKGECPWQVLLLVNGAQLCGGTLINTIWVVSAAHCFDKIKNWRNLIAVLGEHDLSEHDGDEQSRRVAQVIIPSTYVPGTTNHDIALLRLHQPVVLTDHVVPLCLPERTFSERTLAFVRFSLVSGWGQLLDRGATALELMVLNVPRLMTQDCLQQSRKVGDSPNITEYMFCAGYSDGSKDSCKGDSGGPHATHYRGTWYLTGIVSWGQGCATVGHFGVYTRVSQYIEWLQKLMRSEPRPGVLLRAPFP
Description: as §1

FVII(a) variant E394A = target: T4, FVII(a) variant E394A (human, UniProt P08709 61-466)
T4 construct: hFVII alanine variant in cell culture supernatant
T4 sequence: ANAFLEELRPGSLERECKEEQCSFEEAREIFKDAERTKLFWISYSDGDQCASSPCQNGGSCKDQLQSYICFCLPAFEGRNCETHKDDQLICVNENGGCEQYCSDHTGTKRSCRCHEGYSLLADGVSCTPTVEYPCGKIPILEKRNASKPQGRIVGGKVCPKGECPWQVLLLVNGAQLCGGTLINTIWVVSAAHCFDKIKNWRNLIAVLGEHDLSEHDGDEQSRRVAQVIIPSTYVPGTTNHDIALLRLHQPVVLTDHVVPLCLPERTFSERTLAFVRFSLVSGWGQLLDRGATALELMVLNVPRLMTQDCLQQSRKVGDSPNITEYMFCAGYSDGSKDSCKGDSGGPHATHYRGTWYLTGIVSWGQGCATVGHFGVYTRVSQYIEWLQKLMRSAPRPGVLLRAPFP
Description: as §1

FVII(a) variant E265A = target: T5, FVII(a) variant E265A (human, UniProt P08709 61-466)
T5 construct: hFVII alanine variant in cell culture supernatant
T5 sequence: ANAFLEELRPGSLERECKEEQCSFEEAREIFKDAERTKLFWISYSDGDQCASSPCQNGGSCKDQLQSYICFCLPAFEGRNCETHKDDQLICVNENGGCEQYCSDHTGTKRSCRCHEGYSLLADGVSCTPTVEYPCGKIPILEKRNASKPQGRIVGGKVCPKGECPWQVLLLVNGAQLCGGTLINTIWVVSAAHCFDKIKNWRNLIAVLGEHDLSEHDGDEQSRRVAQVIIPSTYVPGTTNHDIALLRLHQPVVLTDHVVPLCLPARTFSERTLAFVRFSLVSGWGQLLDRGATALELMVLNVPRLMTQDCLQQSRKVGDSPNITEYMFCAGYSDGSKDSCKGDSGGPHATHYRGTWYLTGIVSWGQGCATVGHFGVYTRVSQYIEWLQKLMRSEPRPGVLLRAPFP
Description: as §1

Kd (FVII(a) variant R392A): 43.4 nM
Kd (FVII(a) variant T185A): 1.01 nM
Kd (FVII(a) variant L120A): 0.6 nM
Kd (FVII(a) variant E394A): 0.79 nM
Kd (FVII(a) variant E265A): 0.98 nM
B1: mAb0842(OA) (antibody, human IgG4 S228P, kappa)
heavy: QVQLQESGPGLVKPSQTLSLTCTVSGYSISSDSAWSWIRQPPGKGLEWIGYIQYSGSTNYNPSLKSRVTISRDTSKNQFSLKLSSVTAADTAVYYCARSVNYYGNSFAVGYWGQGTLVTVSSASTKGPSVFPLAPCSRSTSESTAALGCLVKDYFPEPVTVSWNSGALTSGVHTFPAVLQSSGLYSLSSVVTVPSSSLGTKTYTCNVDHKPSNTKVDKRVESKYGPPCPPCPAPEFLGGPSVFLFPPKPKDTLMISRTPEVTCVVVDVSQEDPEVQFNWYVDGVEVHNAKTKPREEQFNSTYRVVSVLTVLHQDWLNGKEYKCKVSNKGLPSSIEKTISKAKGQPREPQVYTLPPSQEEMTKNQVSLSCAVKGFYPSDIAVEWESNGQPENNYKTTPPVLDSDGSFFLVSRLTVDKSRWQEGNVFSCSVMHEALHNHYTQKSLSLSLGK
light: EIVLTQSPATLSLSPGERATLSCRASQGISDYLHWYQQKPGEAPRLLIKYTSQPATGIPARFSGSGSGTDFTLTISSLEPEDFAVYYCQNGHSFPLTFGQGTKLEIKRTVAAPSVFIFPPSDEQLKSGTASVVCLLNNFYPREAKVQWKVDNALQSGNSQESVTEQDSKDSTYSLSSTLTLSKADYEKHKVYACEVTHQGLSSPVTKSFNRGEC
chain: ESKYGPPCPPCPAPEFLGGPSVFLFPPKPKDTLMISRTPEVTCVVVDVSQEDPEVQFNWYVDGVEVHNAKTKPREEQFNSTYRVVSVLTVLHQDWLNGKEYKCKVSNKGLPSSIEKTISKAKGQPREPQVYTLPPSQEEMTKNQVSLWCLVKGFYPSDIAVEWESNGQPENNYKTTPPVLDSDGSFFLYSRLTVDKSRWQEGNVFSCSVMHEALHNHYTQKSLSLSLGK
notes: also called monovalent humanized 11F2 antibody; one-armed anti-FVII(a) antibody
